# Laboratory results as given in patent US20080311575A1, “Modulation of Muci-Dependent Anti-Estrogen Resistance” (priority 2005, published 2008).
# Residues, ends and D or L forms follow the SMILES beside them. *: point of attachment. Cbz = O=C(OCc1ccccc1)*
# T1: estrogen receptor α (ERα), expressed in cells (human, UniProt P03372 1-595)
# T1 sequence: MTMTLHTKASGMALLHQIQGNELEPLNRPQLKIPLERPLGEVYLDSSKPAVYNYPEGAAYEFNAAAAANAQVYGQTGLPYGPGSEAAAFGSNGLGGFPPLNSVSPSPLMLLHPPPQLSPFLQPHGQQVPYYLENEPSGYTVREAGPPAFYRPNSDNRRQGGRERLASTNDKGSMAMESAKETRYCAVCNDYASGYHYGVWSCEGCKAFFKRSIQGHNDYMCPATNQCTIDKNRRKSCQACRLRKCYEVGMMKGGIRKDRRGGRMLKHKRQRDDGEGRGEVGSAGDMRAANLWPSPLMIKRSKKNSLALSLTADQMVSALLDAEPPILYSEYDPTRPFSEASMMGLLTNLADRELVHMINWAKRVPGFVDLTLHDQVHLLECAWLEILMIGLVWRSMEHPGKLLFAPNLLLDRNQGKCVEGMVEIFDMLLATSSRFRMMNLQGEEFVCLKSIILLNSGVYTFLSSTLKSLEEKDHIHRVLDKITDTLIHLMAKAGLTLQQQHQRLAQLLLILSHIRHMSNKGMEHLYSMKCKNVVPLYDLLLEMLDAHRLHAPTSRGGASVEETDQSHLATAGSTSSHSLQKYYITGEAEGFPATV
# T2: 35S-labeled ERα(1-185) (Homo sapiens (Human), UniProt P03372 1-185, 35S-labeled in in vitro transcription/translation (TNT) reactions)
# T2 construct: Deletion mutant that contains the AF1 domain
# T2 sequence: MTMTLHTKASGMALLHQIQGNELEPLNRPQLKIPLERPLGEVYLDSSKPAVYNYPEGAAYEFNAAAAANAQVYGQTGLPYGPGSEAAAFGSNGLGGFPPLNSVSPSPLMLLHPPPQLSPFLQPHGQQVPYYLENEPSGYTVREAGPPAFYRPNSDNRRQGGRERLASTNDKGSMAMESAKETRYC
# T3: 35S-labeled ERα(Δ186-281) (Homo sapiens (Human), UniProt P03372 1-595, 35S-labeled in in vitro transcription/translation (TNT) reactions)
# T3 construct: Internal deletion of residues 186-281, devoid of the DBD
# T3 sequence: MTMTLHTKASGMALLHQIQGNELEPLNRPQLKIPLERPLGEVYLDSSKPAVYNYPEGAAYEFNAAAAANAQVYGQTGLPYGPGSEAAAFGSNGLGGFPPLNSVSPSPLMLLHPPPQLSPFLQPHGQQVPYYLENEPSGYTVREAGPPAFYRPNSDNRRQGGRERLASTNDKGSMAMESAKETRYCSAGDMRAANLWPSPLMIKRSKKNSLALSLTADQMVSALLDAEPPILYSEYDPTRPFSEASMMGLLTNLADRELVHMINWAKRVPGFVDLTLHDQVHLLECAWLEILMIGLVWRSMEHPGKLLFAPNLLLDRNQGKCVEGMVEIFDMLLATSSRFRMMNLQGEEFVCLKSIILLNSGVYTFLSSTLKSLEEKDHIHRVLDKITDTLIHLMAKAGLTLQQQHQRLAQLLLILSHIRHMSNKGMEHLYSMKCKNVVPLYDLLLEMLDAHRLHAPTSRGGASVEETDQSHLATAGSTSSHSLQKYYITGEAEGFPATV
# T4: 35S-labeled ERα(282-595) (Homo sapiens (Human), UniProt P03372 282-595, 35S-labeled in in vitro transcription/translation (TNT) reactions)
# T4 sequence: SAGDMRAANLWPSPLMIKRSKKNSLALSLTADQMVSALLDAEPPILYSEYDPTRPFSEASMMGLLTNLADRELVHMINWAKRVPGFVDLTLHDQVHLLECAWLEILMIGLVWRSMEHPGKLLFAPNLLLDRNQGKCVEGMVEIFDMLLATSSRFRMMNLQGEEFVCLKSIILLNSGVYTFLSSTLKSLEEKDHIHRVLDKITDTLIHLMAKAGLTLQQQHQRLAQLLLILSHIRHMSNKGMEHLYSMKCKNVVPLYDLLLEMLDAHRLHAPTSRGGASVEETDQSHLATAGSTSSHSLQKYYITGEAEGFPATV
# T5: 35S-labeled full-length ERα(1-595) (Homo sapiens (Human), UniProt P03372 1-595, 35S-labeled in in vitro transcription/translation (TNT) reactions)
# T5 construct: In vitro translated from pcDNA3.1-ERα; also called 35S-labeled ERα
# T5 sequence: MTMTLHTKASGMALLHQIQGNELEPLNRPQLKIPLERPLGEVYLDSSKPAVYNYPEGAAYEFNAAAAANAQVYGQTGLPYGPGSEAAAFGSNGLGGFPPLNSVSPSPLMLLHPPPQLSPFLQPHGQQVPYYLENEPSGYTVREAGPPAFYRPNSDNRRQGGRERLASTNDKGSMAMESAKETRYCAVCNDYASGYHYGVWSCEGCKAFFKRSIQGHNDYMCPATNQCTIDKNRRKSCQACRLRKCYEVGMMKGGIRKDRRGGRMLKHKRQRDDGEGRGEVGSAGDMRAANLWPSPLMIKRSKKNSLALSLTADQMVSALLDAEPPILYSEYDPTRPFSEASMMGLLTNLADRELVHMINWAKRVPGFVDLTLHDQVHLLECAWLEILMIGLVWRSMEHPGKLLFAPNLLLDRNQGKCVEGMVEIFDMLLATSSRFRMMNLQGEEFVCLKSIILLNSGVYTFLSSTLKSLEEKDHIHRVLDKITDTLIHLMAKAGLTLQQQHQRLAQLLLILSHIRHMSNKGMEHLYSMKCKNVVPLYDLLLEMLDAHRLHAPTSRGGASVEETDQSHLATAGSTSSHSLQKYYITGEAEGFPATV
# Legend:
# [1] = system: ERα-mediated transcription (ERE-tk-Luc); test: ERE-tk-Luc reporter assay in MCF-7/CsiRNA and MCF-7/MUC1siRNA-A cells; type: cell-based, human; conditions: MCF-7/CsiRNA versus MCF-7/MUC1siRNA-A cells, 100 nM E2 for 24 h
# ERα = test: Immunoblot of ERα levels in MCF-7 and ZR-75-1 cells; type: cell-based, human; conditions: MG132 5 mM for 24 h
# Procedure: FIGS. 5A-D. MUC1 stabilizes ERα. FIG. 5A. Lysates from the indicated MCF-7 (left) and ZR-75-1 (right) cells were immunoblotted with anti-ERa, anti-MUC1-C and anti-β-actin. WT: wild-type cells. FIGS. 5B and C. The indicated MCF-7 (left) and ZR-75-1 (right) cells were treated with 5 mM MG132 for 24 h. Lysates were subjected to immunoblotting with the indicated antibodies FIG. 5B. […] Lysates were immunoprecipitated with anti-ERα and the precipitates were analyzed by SDS-PAGE and autoradiography. A higher amount of MCF-7/MUC1siRNA cell lysate was used for immunoprecipitation to increase the ERα signals. Lysates not subjected to immunoprecipitation were immunoblotted with anti-β-actin. Intensity of the signals as determined by densitometric scanning is presented as the percentage of ERα remaining over time relative to control at 0 h.
# Coimmunoprecipitation and immunoblotting.
# breast cancer = conditions: patients with high ER and PgR expression levels; cited from earlier work
# breast cancer cells = test: Induction of apoptosis in breast cancer cells; type: cell-based, human; conditions: both cell types (MCF-7, ZR-75-1); data not shown
# [2] = target: T6, proliferating cell nuclear antigen (PCNA) (human, UniProt P12004 1-261); test: coimmunoprecipitation: anti-PCNA precipitates of cell lysates, immunoblot with anti-MUC1-C
# T6 construct: Precipitated from lysates with anti-PCNA as a control
# [3] = target: T1, estrogen receptor α (ERα), expressed in …; test: cell-based or functional assay
# 35S-labeled ERα(1-185) = target: T2, 35S-labeled ERα(1-185); test: GST pull-down on glutathione beads, 35S-labeled ERα deletion mutant, phosphoimaging
# [4] = target: T3, 35S-labeled ERα(Δ186-281); test: as above
# 35S-labeled ERα(282-595) = target: T4, 35S-labeled ERα(282-595); test: as above
# [5] = target: T5, 35S-labeled full-length ERα(1-595); test: GST pull-down on glutathione beads, 35S-labeled full-length ERα, phosphoimaging
# Procedure: To localize the region within MUC1-CD that interacts with ERα, ³⁵S-labeled full length ERα was incubated with deletion mutants of MUC1-CD.
# T6 sequence (P12004 whole entry): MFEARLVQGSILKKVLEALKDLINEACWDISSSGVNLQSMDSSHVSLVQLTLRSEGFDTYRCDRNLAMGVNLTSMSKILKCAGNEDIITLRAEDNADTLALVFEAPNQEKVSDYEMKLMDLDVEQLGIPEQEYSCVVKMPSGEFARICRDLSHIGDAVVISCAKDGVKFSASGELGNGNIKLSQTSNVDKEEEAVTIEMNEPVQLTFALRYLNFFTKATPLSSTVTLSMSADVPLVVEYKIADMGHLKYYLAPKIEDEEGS
molecule,measurement,setting,value
"C[C@]12CC[C@@H]3c4ccc(O)cc4CC[C@H]3[C@@H]1CC[C@@H]2O [E2, 17β-estradiol]",MUC1-dependent activation of ERE-tk-Luc,[1],~5 fold
"C[C@]12CC[C@@H]3c4ccc(O)cc4C[C@@H](CCCCCCCCC[S+]([O-])CCCC(F)(F)C(F)(F)F)[C@H]3[C@@H]1CC[C@@H]2O (some centres unmarked) [ICI, ICI 182,780]",effect on ERα expression (immunoblot),ERα,down-regulation of ERα
CC(C)C[C@@H](C=O)NC(=O)[C@H](CC(C)C)NC(=O)[C@H](CC(C)C)NC(=O)OCc1ccccc1 [MG132] (Cbz-Leu-Leu-Leu-aldehyde),effect on ERα expression (immunoblot),ERα,increases in ERα expression
"CC/C(=C(\c1ccccc1)c1ccc(OCCN(C)C)cc1)c1ccccc1 [TAM, tamoxifen]",overall response rate,breast cancer,≤ 70%
same,induction of apoptosis,breast cancer cells,≤ 10%
"MUC1 C-terminal subunit (MUC1-C) (other, Endogenous ~20-25 kDa MUC1-C in lysates of human breast cancer cells) SVVVQLTLAFREGTINVHDVETQFNQYKTEAASRYNLTISDVSVSDVPFPFSAQSGAGVPGWGIALLVLVCVLVALAIVYLIALAVCQCRRKNYGQLDIFPARDTYHPMSEYPTYHTHGRYVPPSSTDRSPYEKVSAGNGGSSLSYTNPAVAATSANL",binding result,[2],no binding
same,"MUC1-dependent activation of ERE-tk-Luc (luciferase reporter, MCF-7/CsiRNA against MCF-7/MUC1siRNA-A cells stimulated with E2)",[3],~5 fold
"GST-MUC1-CD(1-72) (other, not shown: a dimerising Fc or GST, also called full-length MUC1-CD) CQCRRKNYGQLDIFPARDTYHPMSEYPTYHTHGRYVPPSSTDRSPYEKVSAGNGGSSLSYTNPAVAATSANL",binding result,35S-labeled ERα(1-185),no binding
same,binding result,[4],no binding
same,binding result,35S-labeled ERα(282-595),no binding
"CQCRRKNYEKVSAGNGGSSLSYTNPAVAATSANL (other, not shown: a dimerising Fc or GST; large carriers; small tags and cut ends, also called MUC1-CD deletion mutant (amino acids 9 to 46 deleted)) [GST-MUC1-CD with deletion of amino acids 9 to 46]",binding result,[5],no binding
